Results on 167 variants are retold here after the RNAGym collection of RNA variant scans (doi:10.7554/elife.80360).

B1: CPEB3 Ribozyme (parent)
chain: GGGGGCCACAGCAGAAGCGUUCACGUCGCGGCCCCUGUCAGAUUCUGGUGAAUCUGCGAAUUCUGCUGU

Variants of B1 are the subject of this data set. Put plainly: self-cleavage, relative activity (ratio to wild type); higher = more cleavage; co-transcriptional.
As for A23C C32A, the self-cleavage was 0.59.

For C22U G31C, the self-cleavage was found to be 0.103.

Consider C22U G31U, for which the self-cleavage was determined as 0.116.

As for C22U G31A, the self-cleavage was 0.183.

On to C22U G65C, for which the self-cleavage was determined as 0.248.

Take C22U G65A: the self-cleavage was 0.216.

With C22U G65U, the self-cleavage is 0.195.

For the variant C22U A59C, the self-cleavage came out at 0.188.

As to C22U A59U, the self-cleavage worked out at 0.201.

C22A U64A: the self-cleavage stood at 0.176.

With C22A U64C, the self-cleavage came out at 0.168.

In the case of C22A U64G, the self-cleavage is 0.0937.

For the variant C22A C39U, the self-cleavage worked out at 0.206.

Take C22G G28C: the self-cleavage amounted to 0.18.

Take C22G G28U: the self-cleavage turned out to be 0.182.

As for C22G C27U, the self-cleavage was 0.142.

For C22G C27A, the self-cleavage came out at 0.149.

Take C22U U53A: the self-cleavage stood at 0.193.

Turning to C22U U53G, the self-cleavage amounted to 0.111.

Consider C22U U53C, for which the self-cleavage stood at 0.227.

With C22A C57G, the self-cleavage was 0.187.

Regarding C22A C57U, the self-cleavage is 0.137.

Take C22G G31U: the self-cleavage turned out to be 0.178.

Consider C22U C63G, for which the self-cleavage stood at 0.156.

For C22U C63A, the self-cleavage came out at 0.178.

In the case of C22U C63U, the self-cleavage turned out to be 0.265.

Regarding C22U U26A, the self-cleavage worked out at 0.2.

Turning to C22G C33U, the self-cleavage was found to be 0.264.

For C22G C33A, the self-cleavage amounted to 0.195.

Regarding A23C A40G, the self-cleavage was determined as 0.92.

In the case of C22U G47C, the self-cleavage is 0.389.

As for C22U G47A, the self-cleavage was found to be 0.279.

Regarding C22U G47U, the self-cleavage was 0.37.

Turning to C22U G48U, the self-cleavage came out at 0.401.

In the case of C22U G48C, the self-cleavage is 0.313.

For the variant C22A A60C, the self-cleavage was 0.129.

As for C22G C35U, the self-cleavage was 0.208.

On to C22G C35A, for which the self-cleavage worked out at 0.169.

With C22G C35G, the self-cleavage is 0.231.

Take C22G G68U: the self-cleavage is 0.197.

Consider C22U C54A, for which the self-cleavage was found to be 0.19.

In the case of A23C C27U, the self-cleavage is 0.358.

With A23C C27A, the self-cleavage is 0.463.

Take C22U U44A: the self-cleavage came to 0.318.

Regarding C22U U44C, the self-cleavage is 0.31.

Take C22U U44G: the self-cleavage is 0.241.

Consider C22G C63U, for which the self-cleavage amounted to 0.123.

C22G C63G: the self-cleavage stood at 0.209.

Turning to C22G C63A, the self-cleavage was determined as 0.141.

For A23C A59C, the self-cleavage was 0.69.

Turning to A23C A59G, the self-cleavage was 0.96.

Regarding C22A U67A, the self-cleavage came out at 0.174.

Consider C22A U67G, for which the self-cleavage was 0.27.

In the case of C22G U64C, the self-cleavage was determined as 0.205.

Consider C22G U64A, for which the self-cleavage was 0.202.

Turning to A23C C45G, the self-cleavage amounted to 0.931.

As to A23C C45U, the self-cleavage is 0.961.

On to A23C C45A, for which the self-cleavage was 0.986.

As for C22G G50C, the self-cleavage was 0.127.

C22G G50U: the self-cleavage was 0.145.

A23C A60G: the self-cleavage turned out to be 0.828.

As for A23C A60C, the self-cleavage was 0.327.

On to C22G U62G, for which the self-cleavage is 0.162.

As for C22G U62C, the self-cleavage stood at 0.117.

C22G U62A: the self-cleavage was determined as 0.194.

For the variant C22U U62G, the self-cleavage turned out to be 0.207.

For the variant C22U U62A, the self-cleavage amounted to 0.167.

C22U G37C: the self-cleavage came to 0.216.

In the case of C22U G37A, the self-cleavage amounted to 0.957.

C22A C45G: the self-cleavage was determined as 0.194.

With C22U A60G, the self-cleavage came out at 0.223.

As for C22U A60C, the self-cleavage came to 0.158.

As for C22U A60U, the self-cleavage is 0.137.

Regarding C22A U53G, the self-cleavage came to 0.151.

For the variant C22A U53A, the self-cleavage stood at 0.208.

As to C22G U49C, the self-cleavage is 0.123.

For C22G U49G, the self-cleavage was 0.153.

C22G G41C: the self-cleavage is 0.105.

C22G G41U: the self-cleavage stood at 0.178.

Take C22G G41A: the self-cleavage turned out to be 0.147.

For C22U C57A, the self-cleavage stood at 0.166.

As to C22U C32U, the self-cleavage turned out to be 0.33.

With C22U C32A, the self-cleavage was 0.17.

C22U U36A: the self-cleavage was 0.196.

C22U U36C: the self-cleavage was 0.157.

With C22U U36G, the self-cleavage turned out to be 0.175.

Turning to C22A G41U, the self-cleavage is 0.154.

As for C22A G41A, the self-cleavage is 0.12.

In the case of C22A G41C, the self-cleavage is 0.138.

On to A23C C24G, for which the self-cleavage was determined as 0.414.

Take A23C C24A: the self-cleavage was determined as 0.785.

As to A23C C24U, the self-cleavage worked out at 0.52.

Consider C22U U49C, for which the self-cleavage stood at 0.294.

Take C22U U49G: the self-cleavage was determined as 0.247.

A23C C57A: the self-cleavage was 0.339.

As to A23C C57G, the self-cleavage came to 0.412.

Take A23C C54U: the self-cleavage stood at 0.967.

Regarding A23C C54G, the self-cleavage was 0.921.

Take A23C A52U: the self-cleavage is 0.917.

As to A23C A52G, the self-cleavage turned out to be 0.963.

Take A23C A52C: the self-cleavage worked out at 0.921.

Turning to C22A A51G, the self-cleavage turned out to be 0.169.

As for C22A A51U, the self-cleavage was determined as 0.242.

On to C22G C45A, for which the self-cleavage is 0.223.

On to C22G C45G, for which the self-cleavage was found to be 0.229.

With C22U U38G, the self-cleavage worked out at 0.141.

Regarding C22U U38C, the self-cleavage stood at 0.304.

Turning to C22U U38A, the self-cleavage came to 0.272.

Consider C22G U46A, for which the self-cleavage amounted to 0.205.

With C22G U46C, the self-cleavage was 0.192.

For C22U U69C, the self-cleavage came out at 0.601.

Take C22U U69A: the self-cleavage was 0.384.

Take C22U U69G: the self-cleavage came to 0.462.

Turning to C22A U61A, the self-cleavage stood at 0.219.

C22A U61G: the self-cleavage was 0.25.

Regarding C22A U61C, the self-cleavage came out at 0.164.

As for C22A G48U, the self-cleavage is 0.162.

On to C22A G48C, for which the self-cleavage turned out to be 0.162.

Consider C22A G48A, for which the self-cleavage turned out to be 0.223.

As for C22A G31U, the self-cleavage was determined as 0.194.

C22A G31A: the self-cleavage is 0.174.

Take C22A G31C: the self-cleavage is 0.137.

On to C22G C32A, for which the self-cleavage turned out to be 0.117.

As to C22G C32G, the self-cleavage turned out to be 0.139.

Consider C22A G58U, for which the self-cleavage is 0.119.

For C22A G58A, the self-cleavage came to 0.179.

Regarding A23C A51U, the self-cleavage came out at 0.959.

On to A23C A51G, for which the self-cleavage was found to be 0.899.

A23C A51C: the self-cleavage was 0.942.

With C22G G56U, the self-cleavage was found to be 0.202.

On to A23C C34U, for which the self-cleavage was determined as 0.936.

Turning to A23C C34G, the self-cleavage is 0.36.

Consider A23C C34A, for which the self-cleavage amounted to 0.696.

C22A U55C: the self-cleavage amounted to 0.113.

C22A U55A: the self-cleavage is 0.234.

Consider C22A C54G, for which the self-cleavage stood at 0.2.

Turning to C22A C54U, the self-cleavage turned out to be 0.139.

Turning to C22A C34A, the self-cleavage was 0.206.

With C22U A51G, the self-cleavage was found to be 0.314.

Turning to C22U A51C, the self-cleavage stood at 0.291.

With A23C, the self-cleavage was determined as 0.957.

As for C22U C33U, the self-cleavage worked out at 0.315.

On to C22U C33A, for which the self-cleavage came out at 0.176.

For C22U C33G, the self-cleavage amounted to 0.18.

In the case of C22G A51U, the self-cleavage came out at 0.163.

C22G A51G: the self-cleavage stood at 0.131.

In the case of C22G A51C, the self-cleavage came to 0.151.

In the case of A23C C39G, the self-cleavage is 0.905.

In the case of A23C C39A, the self-cleavage was found to be 0.798.

Turning to C22U G41C, the self-cleavage was 0.117.

Turning to C22U G41A, the self-cleavage turned out to be 0.185.

In the case of C22U G41U, the self-cleavage is 0.164.

C22G C66G: the self-cleavage turned out to be 0.182.

Turning to C22G C66A, the self-cleavage came out at 0.135.

As for C22U A52C, the self-cleavage was found to be 0.233.

As to C22U A52G, the self-cleavage was determined as 0.379.

Regarding C22G C54A, the self-cleavage was found to be 0.121.

Regarding C22G C54U, the self-cleavage was 0.204.

With C22G C54G, the self-cleavage turned out to be 0.125.

Regarding C22G U43A, the self-cleavage was determined as 0.114.

For C22G U43G, the self-cleavage was found to be 0.133.

As for C22G U43C, the self-cleavage amounted to 0.174.

For the variant C22G A23G, the self-cleavage worked out at 0.217.

Take C22A C24U: the self-cleavage was 0.128.

C22A C24G: the self-cleavage stood at 0.249.

Consider C22A C33A, for which the self-cleavage worked out at 0.2.

On to C22A C33U, for which the self-cleavage amounted to 0.218.
